The text below walks through data of publication PMC10348767 (2023).

B1: FLAG-hnRNPH2 WT, full length [human] / Kapβ2 in HEK293T cells [human (endogenous in HEK293T)] (parent complex)
chain 1: MMLSTEGREGFVVKVRGLPWSCSADEVMRFFSDCKIQNGTSGIRFIYTREGRPSGEAFVELESEEEVKLALKKDRETMGHRYVEVFKSNSVEMDWVLKHTGPNSPDTANDGFVRLRGLPFGCSKEEIVQFFSGLEIVPNGMTLPVDFQGRSTGEAFVQFASQEIAEKALKKHKERIGHRYIEIFKSSRAEVRTHYDPPRKLMAMQRPGPYDRPGAGRGYNSIGRGAGFERMRRGAYGGGYGGYDDYGGYNDGYGFGSDRFGRDLNYCFSGMSDHRYGDGGSSFQSTTGHCVHMRGLPYRATENDIYNFFSPLNPMRVHIEIGPDGRVTGEADVEFATHEDAVAAMAKDKANMQHRYVELFLNSTAGTSGGAYDHSYVELFLNSTAGASGGAYGSQMMGGMGLSNQSSYGGPASQQLSGGYGGGYGGQSSMSGYDQVLQENSSDYQSNLA
chain 2: MVWDRQTKMEYEWKPDEQGLQQILQLLKESQSPDTTIQRTVQQKLEQLNQYPDFNNYLIFVLTKLKSEDEPTRSLSGLILKNNVKAHFQNFPNGVTDFIKSECLNNIGDSSPLIRATVGILITTIASKGELQNWPDLLPKLCSLLDSEDYNTCEGAFGALQKICEDSAEILDSDVLDRPLNIMIPKFLQFFKHSSPKIRSHAVACVNQFIISRTQALMLHIDSFIENLFALAGDEEPEVRKNVCRALVMLLEVRMDRLLPHMHNIVEYMLQRTQDQDENVALEACEFWLTLAEQPICKDVLVRHLPKLIPVLVNGMKYSDIDIILLKGDVEEDETIPDSEQDIRPRFHRSRTVAQQHDEDGIEEEDDDDDEIDDDDTISDWNLRKCSAAALDVLANVYRDELLPHILPLLKELLFHHEWVVKESGILVLGAIAEGCMQGMIPYLPELIPHLIQCLSDKKALVRSITCWTLSRYAHWVVSQPPDTYLKPLMTELLKRILDSNKRVQEAACSAFATLEEEACTELVPYLAYILDTLVFAFSKYQHKNLLILYDAIGTLADSVGHHLNKPEYIQMLMPPLIQKWNMLKDEDKDLFPLLECLSSVATALQSGFLPYCEPVYQRCVNLVQKTLAQAMLNNAQPDQYEAPDKDFMIVALDLLSGLAEGLGGNIEQLVARSNILTLMYQCMQDKMPEVRQSSFALLGDLTKACFQHVKPCIADFMPILGTNLNPEFISVCNNATWAIGEISIQMGIEMQPYIPMVLHQLVEIINRPNTPKTLLENTAITIGRLGYVCPQEVAPMLQQFIRPWCTSLRNIRDNEEKDSAFRGICTMISVNPSGVIQDFIFFCDAVASWINPKDDLRDMFCKILHGFKNQVGDENWRRFSDQFPLPLKERLAAFYGV
B2: GST-hnRNPH2 PY-NLS WT (aa 169–225) [human] / karyopherin β2 (Kapβ2) [not stated] (parent complex)
chain 1: LKKHKERIGHRYIEIFKSSRAEVRTHYDPPRKLMAMQRPGPYDRPGAGRGYNSIGRG
chain 2: B1 chain 2

In the first assay the parent is B1. The experiment in a line: co-immunoprecipitation (anti-FLAG IP, immunoblot densitometry); HEK293T cells transfected with FLAG-hnRNPH2 constructs; parent: 100; read off a plot. On the technique in general: Immunoblotting shows a protein as a band on a membrane.
With chain 1 R206Q, the percent of parent is roughly 25%.
Same read-out and setting: in the case of chain 1 R206G it was roughly 26%.
With chain 1 R206W, the percent of parent is roughly 48%.
As for chain 1 Y210C, the percent of parent is roughly 25%.
The same measure, in the same setting: in the case of chain 1 P209L it was roughly 20%.

Variants of B2 are the subject of another assay. The experiment in a line: GST pulldown, Coomassie Blue band intensity; parent: 86; read off a plot.
As to chain 1 P41L, the response is roughly 28%.
Turning to chain 1 R38W, the response was roughly 42%.
